According to paper PMC10786891, “Massively parallel profiling of RNA-targeting CRISPR-Cas13d”:
Where a chain is given by its changes, count along the chain named. Names and notes keep the numbering of the source.

T1: EsCas13d, nuclease-dead (Eubacterium siraeum, UniProt B0MS50, R295A;H300A;R849A;H854A)
T1 sequence: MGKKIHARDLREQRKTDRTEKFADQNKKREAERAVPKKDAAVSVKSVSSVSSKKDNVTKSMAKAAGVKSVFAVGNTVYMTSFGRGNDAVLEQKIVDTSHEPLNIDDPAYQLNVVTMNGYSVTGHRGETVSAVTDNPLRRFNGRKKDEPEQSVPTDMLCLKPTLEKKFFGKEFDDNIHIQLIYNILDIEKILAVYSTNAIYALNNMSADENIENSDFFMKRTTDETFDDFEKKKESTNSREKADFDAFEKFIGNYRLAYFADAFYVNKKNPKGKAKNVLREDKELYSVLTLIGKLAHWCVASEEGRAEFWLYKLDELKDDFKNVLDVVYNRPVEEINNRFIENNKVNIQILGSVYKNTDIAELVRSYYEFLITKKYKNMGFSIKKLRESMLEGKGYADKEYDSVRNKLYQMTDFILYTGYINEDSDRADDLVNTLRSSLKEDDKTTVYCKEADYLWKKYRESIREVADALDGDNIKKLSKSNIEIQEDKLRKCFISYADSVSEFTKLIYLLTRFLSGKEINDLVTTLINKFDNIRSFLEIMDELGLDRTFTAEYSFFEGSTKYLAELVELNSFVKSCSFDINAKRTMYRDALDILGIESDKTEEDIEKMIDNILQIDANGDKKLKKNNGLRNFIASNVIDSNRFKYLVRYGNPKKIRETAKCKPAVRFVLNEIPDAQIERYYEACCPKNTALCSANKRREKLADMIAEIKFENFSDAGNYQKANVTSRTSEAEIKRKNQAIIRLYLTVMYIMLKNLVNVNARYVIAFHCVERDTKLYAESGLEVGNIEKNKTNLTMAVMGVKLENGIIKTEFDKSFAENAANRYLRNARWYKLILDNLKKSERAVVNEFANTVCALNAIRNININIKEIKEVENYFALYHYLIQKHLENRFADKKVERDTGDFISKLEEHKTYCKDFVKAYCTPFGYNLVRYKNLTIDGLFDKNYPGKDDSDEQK

B1: target 2 MT 5'PFS GAC 3'PFS UAC (mixed)
RNA 1: CACCCGUGCAAAAUUGCAGGGGUCUAAAACCUUCUCCAAAUUGUUUCAUCCU
RNA 2: GGGAAUGGAUCCACAUCUACGAAUUCGACAGGAUGAAACAAUUUGGAGAAGUACAGAUCGGAAGAGCACACGU
B2: target 2 MT 5'PFS GCA 3'PFS UAU (mixed)
RNA 1: B1 RNA 1
RNA 2: B1 RNA 2 with A28C, C29A, C54U
B3: target 2 MT 5'PFS GAC 3'PFS UAA (mixed)
RNA 1: B1 RNA 1
RNA 2: B1 RNA 2 with C54A
B4: target 2 MT 5'PFS GAC 3'PFS UAG (mixed)
RNA 1: B1 RNA 1
RNA 2: B1 RNA 2 with C54G
B5: target 1 insU 3' of 22,insG 3' of 14 (mixed)
RNA 1: CACCCGUGCAAAAAUGCAGGGGUCUAAAACUGAGCGGAUAACCUCUCUAUGG
RNA 2: GGGAAUGGAUCCACAUCUACGAAUUCGUACUCAUAGAGAGGGUUAUCCGCUCACCGAGAUCGGAAGAGCACACGU
B6: target 2 MT 5'PFS AUC 3'PFS AAC (mixed)
RNA 1: B1 RNA 1
RNA 2: B1 RNA 2 with G27A, A28U, U52A
B7: target 2 MT 5'PFS CAU 3'PFS ACA (mixed)
RNA 1: B1 RNA 1
RNA 2: B1 RNA 2 with G27C, C29U, U52A, A53C, C54A
B8: target 2 MT 5'PFS CAU 3'PFS ACC (mixed)
RNA 1: B1 RNA 1
RNA 2: B1 RNA 2 with G27C, C29U, U52A, A53C
B9: target 2 MT 5'PFS CAU 3'PFS UCA (mixed)
RNA 1: B1 RNA 1
RNA 2: B1 RNA 2 with G27C, C29U, A53C, C54A
B10: target 2 MT 5'PFS UUA 3'PFS AUC (mixed)
RNA 1: B1 RNA 1
RNA 2: B1 RNA 2 with G27U, A28U, C29A, U52A, A53U
B11: target 2 MT 5'PFS CAU 3'PFS UCC (mixed)
RNA 1: B1 RNA 1
RNA 2: B1 RNA 2 with G27C, C29U, A53C
B12: target 2 MT 5'PFS UUA 3'PFS AUA (mixed)
RNA 1: B1 RNA 1
RNA 2: B1 RNA 2 with G27U, A28U, C29A, U52A, A53U, C54A
B13: target 2 MT 5'PFS UUA 3'PFS AUG (mixed)
RNA 1: B1 RNA 1
RNA 2: B1 RNA 2 with G27U, A28U, C29A, U52A, A53U, C54G
B14: target 2 MT 5'PFS CAU 3'PFS UCG (mixed)
RNA 1: B1 RNA 1
RNA 2: B1 RNA 2 with G27C, C29U, A53C, C54G
B15: target 2 MT 5'PFS AGA 3'PFS AUG (mixed)
RNA 1: B1 RNA 1
RNA 2: B1 RNA 2 with G27A, A28G, C29A, U52A, A53U, C54G
B16: target 1 G5C,A9U (mixed)
RNA 1: B5 RNA 1
RNA 2: GGGAAUGGAUCCACAUCUACGAAUUCGUACCAUAGAGAGGUUUUCCCCUCACCGAGAUCGGAAGAGCACACGU
B17: target 2 MT 5'PFS AGA 3'PFS AUC (mixed)
RNA 1: B1 RNA 1
RNA 2: B1 RNA 2 with G27A, A28G, C29A, U52A, A53U
B18: target 2 MT 5'PFS UUA 3'PFS AUU (mixed)
RNA 1: B1 RNA 1
RNA 2: B1 RNA 2 with G27U, A28U, C29A, U52A, A53U, C54U
B19: target 2 MT 5'PFS AGA 3'PFS AUA (mixed)
RNA 1: B1 RNA 1
RNA 2: B1 RNA 2 with G27A, A28G, C29A, U52A, A53U, C54A
B20: target 2 MT 5'PFS CUU 3'PFS UAG (mixed)
RNA 1: B1 RNA 1
RNA 2: B1 RNA 2 with G27C, A28U, C29U, C54G
B21: target 2 MT 5'PFS GGG 3'PFS CUU (mixed)
RNA 1: B1 RNA 1
RNA 2: B1 RNA 2 with A28G, C29G, U52C, A53U, C54U
B22: target 2 MT 5'PFS CUU 3'PFS UAC (mixed)
RNA 1: B1 RNA 1
RNA 2: B1 RNA 2 with G27C, A28U, C29U
B23: target 2 MT 5'PFS CUU 3'PFS UAA (mixed)
RNA 1: B1 RNA 1
RNA 2: B1 RNA 2 with G27C, A28U, C29U, C54A
B24: target 2 MT 5'PFS GGG 3'PFS CUA (mixed)
RNA 1: B1 RNA 1
RNA 2: B1 RNA 2 with A28G, C29G, U52C, A53U, C54A
B25: target 2 MT 5'PFS CUU 3'PFS UAU (mixed)
RNA 1: B1 RNA 1
RNA 2: B1 RNA 2 with G27C, A28U, C29U, C54U
B26: target 2 MT 5'PFS GGG 3'PFS CUC (mixed)
RNA 1: B1 RNA 1
RNA 2: B1 RNA 2 with A28G, C29G, U52C, A53U
B27: target 1 insG 3' of 22,insG 3' of 4 (mixed)
RNA 1: B5 RNA 1
RNA 2: B5 RNA 2 with U31G, G42U, U44A, A45U, U46C, C48G, G49C, C50G
B28: target 2 MT 5'PFS GGG 3'PFS CUG (mixed)
RNA 1: B1 RNA 1
RNA 2: B1 RNA 2 with A28G, C29G, U52C, A53U, C54G
B29: target 2 MT 5'PFS GGU 3'PFS AGU (mixed)
RNA 1: B1 RNA 1
RNA 2: B1 RNA 2 with A28G, C29U, U52A, A53G, C54U
B30: target 2 MT 5'PFS ACU 3'PFS CGU (mixed)
RNA 1: B1 RNA 1
RNA 2: B1 RNA 2 with G27A, A28C, C29U, U52C, A53G, C54U
B31: target 2 MT 5'PFS CGA 3'PFS UAC (mixed)
RNA 1: B1 RNA 1
RNA 2: B1 RNA 2 with G27C, A28G, C29A
B32: target 2 MT 5'PFS AAG 3'PFS CCG (mixed)
RNA 1: B1 RNA 1
RNA 2: B1 RNA 2 with G27A, C29G, U52C, A53C, C54G
B33: target 2 MT 5'PFS AAG 3'PFS CCA (mixed)
RNA 1: B1 RNA 1
RNA 2: B1 RNA 2 with G27A, C29G, U52C, A53C, C54A
B34: target 2 MT 5'PFS ACU 3'PFS CGG (mixed)
RNA 1: B1 RNA 1
RNA 2: B1 RNA 2 with G27A, A28C, C29U, U52C, A53G, C54G
B35: target 2 MT 5'PFS CGA 3'PFS CCA (mixed)
RNA 1: B1 RNA 1
RNA 2: B1 RNA 2 with G27C, A28G, C29A, U52C, A53C, C54A
B36: target 2 MT 5'PFS CGA 3'PFS CCG (mixed)
RNA 1: B1 RNA 1
RNA 2: B1 RNA 2 with G27C, A28G, C29A, U52C, A53C, C54G
B37: target 2 MT 5'PFS ACU 3'PFS CGC (mixed)
RNA 1: B1 RNA 1
RNA 2: B1 RNA 2 with G27A, A28C, C29U, U52C, A53G
B38: target 1 insG 3' of 18,insG 3' of 6 (mixed)
RNA 1: B5 RNA 1
RNA 2: GGGAAUGGAUCCACAUCUACGAAUUCGUACCAUAGGAGAGGUUAUCCGGCUCACCGAGAUCGGAAGAGCACACGU

target: T1, EsCas13d, nuclease-dead; experiment: crRNA (strand 1, pre-loaded); Mg2+; 40 mM Tris-HCl pH 7.5, 150 mM NaCl, 6 mM MgCl2, 1 mM DTT, 0.1% Tween-20, 0.2 mg/ml BSA; 25 C; 10 min per concentration, then washed; details: tags: His6-TwinStrep-SUMO cleaved; N-terminal SNAP kept (SNAP-Surface 488); label: 3' end held by stalled T7 RNA polymerase

Row | Binder | Kd [nM]
1 | B1 | 27 ± 8
2 | B2 | 10.7 ± 1.5
3 | B3 | 9.5 ± 1.8
4 | B4 | 7.5 ± 1
5 | B5 | 68 ± 22
6 | B6 | 25 ± 11
7 | B7 | 6 ± 1.2
8 | B8 | 5.9 ± 0.7
9 | B9 | 6.4 ± 1.5
10 | B10 | 31 ± 5
11 | B11 | 8.1 ± 0.7
12 | B12 | 27 ± 6
13 | B13 | 50 ± 13
14 | B14 | 3.8 ± 0.4
15 | B15 | 8.2 ± 1.3
16 | B16 | 11.8 ± 0.6
17 | B17 | 9.6 ± 2.3
18 | B18 | 18.5 ± 1.4
19 | B19 | ~5.7

Row | Binder | Kd [nM]
20 | B20 | 4.3 ± 0.8
21 | B21 | 14.2 ± 1.4
22 | B22 | 4.9 ± 0.6
23 | B23 | 3 ± 0.32
24 | B24 | 10.9 ± 1.9
25 | B25 | 3.22 ± 0.27
26 | B26 | 15.5 ± 1.6
27 | B27 | 26.2 ± 2.8
28 | B28 | 11.7 ± 1
29 | B29 | 17.7 ± 2.6
30 | B30 | 8.1 ± 1.3
31 | B31 | 9.5 ± 1.9
32 | B32 | 6.3 ± 0.9
33 | B33 | 8.7 ± 1.6
34 | B34 | 3.47 ± 0.28
35 | B35 | 31 ± 8
36 | B36 | 11.1 ± 1.6
37 | B37 | 7.1 ± 1
38 | B38 | 71 ± 28
